Experimental data as given in IntAct's records for PubMed 19402751.

Target: T1, tim_drome tim (UniProt P49021)
T1 sequence: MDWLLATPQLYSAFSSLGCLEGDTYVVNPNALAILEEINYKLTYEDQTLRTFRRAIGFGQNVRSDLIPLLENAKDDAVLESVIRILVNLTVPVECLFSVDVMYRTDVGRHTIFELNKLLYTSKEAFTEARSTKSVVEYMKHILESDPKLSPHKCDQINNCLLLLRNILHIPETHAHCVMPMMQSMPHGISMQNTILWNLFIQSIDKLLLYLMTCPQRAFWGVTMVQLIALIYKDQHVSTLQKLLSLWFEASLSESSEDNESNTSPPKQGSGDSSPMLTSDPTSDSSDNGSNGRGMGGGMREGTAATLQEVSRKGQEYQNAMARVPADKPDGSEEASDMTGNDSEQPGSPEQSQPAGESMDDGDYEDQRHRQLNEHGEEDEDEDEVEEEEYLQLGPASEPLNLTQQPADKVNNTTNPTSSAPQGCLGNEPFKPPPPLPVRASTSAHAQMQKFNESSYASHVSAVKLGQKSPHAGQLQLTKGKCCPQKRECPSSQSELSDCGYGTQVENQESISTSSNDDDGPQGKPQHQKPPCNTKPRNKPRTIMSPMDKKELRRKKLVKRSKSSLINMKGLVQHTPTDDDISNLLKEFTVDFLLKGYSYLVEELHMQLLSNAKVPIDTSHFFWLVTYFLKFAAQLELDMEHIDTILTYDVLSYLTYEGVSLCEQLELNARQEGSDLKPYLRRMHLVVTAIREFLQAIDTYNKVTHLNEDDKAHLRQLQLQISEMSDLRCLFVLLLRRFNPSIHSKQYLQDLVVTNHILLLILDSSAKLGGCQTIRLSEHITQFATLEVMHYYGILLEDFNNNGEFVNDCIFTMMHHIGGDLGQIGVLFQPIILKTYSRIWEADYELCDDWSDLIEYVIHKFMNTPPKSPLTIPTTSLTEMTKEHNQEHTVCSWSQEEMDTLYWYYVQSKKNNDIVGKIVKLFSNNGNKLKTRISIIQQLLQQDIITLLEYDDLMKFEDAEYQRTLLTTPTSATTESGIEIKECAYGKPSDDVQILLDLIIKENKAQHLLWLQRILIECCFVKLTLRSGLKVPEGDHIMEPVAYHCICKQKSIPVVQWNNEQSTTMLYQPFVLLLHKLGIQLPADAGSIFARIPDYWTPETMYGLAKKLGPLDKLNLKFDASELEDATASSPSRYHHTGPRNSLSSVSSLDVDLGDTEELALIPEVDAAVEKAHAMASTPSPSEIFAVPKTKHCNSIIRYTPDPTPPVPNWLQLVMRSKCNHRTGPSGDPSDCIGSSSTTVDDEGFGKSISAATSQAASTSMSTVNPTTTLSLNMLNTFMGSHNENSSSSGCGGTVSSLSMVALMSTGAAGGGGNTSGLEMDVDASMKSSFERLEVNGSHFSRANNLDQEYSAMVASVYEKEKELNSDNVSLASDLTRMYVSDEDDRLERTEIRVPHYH

effect of a mutation on the interaction: disrupting interaction
Substance: Period circadian protein (Drosophila melanogaster (Fruit fly)) (from UniProt P07663-1) E474R;H492S;R494D
